Changes are numbered by the printed parent chain. Read-outs that look alike come from different tables or passages of the source. One block for each binder: values may come before it.
How the values were obtained:
[1] = target: LILRB2 antigen of the ELISA of Table 5 (format not specified) (UniProt Q8N423 22-460, limits assumed); experiment: ELISA, antibody titration
[2] = target: T1, human LILRB1 expressed on 293T cells (human, UniProt Q8NHL6 24-650); experiment: cell ELISA on fixed 293T transfectants, antibody 2 µg/ml, OD490
T1 construct: whole, on cells
Experimental: (§1) The cells were then immobilized with glutaraldehyde in the presence of 5% defatted milk at room temperature for 2 hours. An anti-LILRB2 antibody (2 μg/ml) was added to each well and incubated at room temperature for 2 hours. An HRP-labelled goat anti-mouse secondary antibody was then added into each well and incubated at room temperature for one hour. An HRP substrate, o-phenylenediamine dihydrochloride (OPD) was then added to each well. The plate was incubated at room temperature for 15 min to allow color development and OD₄₉₀ values were determined.

[3] = target: T2, human LILRB3 expressed on 293T cells (human, UniProt O75022 24-631); experiment: as above
T2 construct: whole, on cells
Experimental: as §1

[4] = target: T3, His-tagged human LILRB2 polypeptide (human, UniProt Q8N423 22-460); experiment: SPR, antibody on CM5 chip, His-LILRB2 analyte, 1:1 model
T3 construct: SPR analyte; also called His-tagged human LILBR2 polypeptide; not shown: His tag
Experimental: Surface plasmon resonance (SPR) was used to examine binding activities of exemplary anti-LILBR2 antibodies disclosed herein. Briefly, the anti-LILBR2 antibody was diluted in a coating buffer to a concentration of 30 μg/ml, loaded onto CM5 chips at 10 μl/min to allow coating of the antibody on the surface of the CM5 chip. […] Binding affinity was measured based on the 1:1 binding model.

[5] = target: T4, human LILRB2 expressed on cells (293T-LILRB2, CHO-K1-LILRB2) (human, UniProt Q8N423 22-597); experiment: flow cytometry, blockade of His-tagged HLA-G tetramer binding to 293T-LILRB2 cells; fit table under the graph, row headed EC50
T4 construct: whole, on cells; the cell line is named under assay; also called HEK293T-LILRB2
Experimental: (§2) Serial diluted humanized LILRB2 antibodies were then added to the mixture and incubated at room temperature for another 45 minutes. The binding of HLA-G/LILRB2 was detected afterwards using a secondary PE-labeled anti-His tag antibody via flow cytometry.

[6] = target: T4, human LILRB2 expressed on cells …; experiment: flow cytometry, blockade of His-tagged HLA-A2 tetramer binding to 293T-LILRB2 cells; fit table under the graph
[7] = target: T4, human LILRB2 expressed on cells …; experiment: flow cytometry on 293T-LILRB2 cells, serial dilution, APC anti-human IgG; fit table under the graph
Source text: (§3) The cells were washed and then subject to flow cytometry to measure levels of fluorescent signals.

[8] = target: T4, human LILRB2 expressed on cells …; experiment: flow cytometry, blockade of His-tagged HLA-G tetramer binding to 293T-LILRB2 cells; fit table under the graph
Experimental: as §2

[9] = target: T4, human LILRB2 expressed on cells …; experiment: as above; remark: listed apart in the source
Experimental: as §2

[10] = target: T4, human LILRB2 expressed on cells …; experiment: flow cytometry on 293T-LILRB2 cells, serial dilution, APC anti-human IgG; fit table under the graph; remark: listed apart in the source
Source text: as §3

[11] = target: T4, human LILRB2 expressed on cells …; experiment: flow cytometry, blockade of His-tagged HLA-A2 tetramer binding to 293T-LILRB2 cells
[12] = target: T4, human LILRB2 expressed on cells …; experiment: flow cytometry on 293T-LILRB2 cells, serial dilution, APC anti-human IgG; fit table under the graph; remark: listed apart in the source
Source text: as §3

[13] = target: T4, human LILRB2 expressed on cells …; experiment: as above; remark: listed apart in the source
Source text: as §3

[14] = target: T4, human LILRB2 expressed on cells …; experiment: flow cytometry, blockade of His-tagged HLA-G tetramer binding to 293T-LILRB2 cells; fit table under the graph; remark: listed apart in the source
Experimental: as §2

[15] = target: T4, human LILRB2 expressed on cells …; experiment: flow cytometry, 293T-LILRB2 cells
Source text: The fluorescent signals were detected by flow cytometry.

[16] = target: T5, recombinant human LILRB2 protein (human, UniProt Q8N423 22-460, limits assumed); experiment: ELISA, coated recombinant human LILRB2; parameters: unit not given here
T5 construct: also called recombinant LILRB2 protein
Experimental: This affinity maturation library was screened against human LILRB2 to identify antibodies having high binding affinity to LILRB2. Briefly, an ELISA plate was coated with 0.1 ug/well recombinant human LILRB2 protein. Serial diluted maturated h#2E1 antibodies were incubated in the LILRB2 coated plate for 2 hrs. The plate was washed and a secondary HRP-labeled anti-human IgG was then added to each well. After being incubated at room temperature for 1 hour, the colorimetric ELISA signals were developed by adding the TMB substrate and reaction was stopped by 1M H3PO4. Table 7 below provides binding activities of exemplary matured antibodies to recombinant LILRB2 protein.

[17] = target: T4, human LILRB2 expressed on cells …; experiment: flow cytometry, His-HLA-A2 tetramer (competitor) bound to 293T-LILRB2 cells, relative to no antibody; parameters: concentration or dose not given beside the values
Experimental: Serial diluted h#2E1 antibodies were then added to the mixture and incubated at room temperature for another 45 minutes. […]

T3 sequence (Q8N423 22-460 limits assumed): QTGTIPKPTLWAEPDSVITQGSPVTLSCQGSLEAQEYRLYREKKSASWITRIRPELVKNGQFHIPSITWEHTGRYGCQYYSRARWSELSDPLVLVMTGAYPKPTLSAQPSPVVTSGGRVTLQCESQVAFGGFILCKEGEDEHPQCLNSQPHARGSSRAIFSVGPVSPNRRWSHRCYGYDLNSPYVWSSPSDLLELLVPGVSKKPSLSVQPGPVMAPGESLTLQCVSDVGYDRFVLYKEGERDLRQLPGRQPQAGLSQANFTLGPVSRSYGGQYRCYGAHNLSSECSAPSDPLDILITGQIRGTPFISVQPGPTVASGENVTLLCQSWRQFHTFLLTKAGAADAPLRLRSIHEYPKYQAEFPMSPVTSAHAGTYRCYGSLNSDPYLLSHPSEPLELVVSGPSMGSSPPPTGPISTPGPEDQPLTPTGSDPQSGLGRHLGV
T4 sequence (Q8N423 22-597): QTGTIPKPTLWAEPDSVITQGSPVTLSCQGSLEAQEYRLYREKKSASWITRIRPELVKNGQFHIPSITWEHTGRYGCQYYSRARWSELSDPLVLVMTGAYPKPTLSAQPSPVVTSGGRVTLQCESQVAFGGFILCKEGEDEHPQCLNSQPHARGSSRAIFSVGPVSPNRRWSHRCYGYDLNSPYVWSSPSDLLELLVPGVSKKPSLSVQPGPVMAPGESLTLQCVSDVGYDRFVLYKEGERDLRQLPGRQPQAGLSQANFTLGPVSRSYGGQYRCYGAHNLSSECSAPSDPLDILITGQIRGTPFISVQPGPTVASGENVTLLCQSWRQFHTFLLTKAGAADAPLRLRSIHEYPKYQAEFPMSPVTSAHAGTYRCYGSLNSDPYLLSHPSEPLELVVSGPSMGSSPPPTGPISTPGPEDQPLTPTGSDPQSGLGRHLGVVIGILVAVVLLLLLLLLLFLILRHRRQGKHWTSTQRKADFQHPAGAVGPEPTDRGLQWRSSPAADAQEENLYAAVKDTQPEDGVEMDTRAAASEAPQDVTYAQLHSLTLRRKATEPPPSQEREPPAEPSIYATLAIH
T1 sequence (Q8NHL6 24-650): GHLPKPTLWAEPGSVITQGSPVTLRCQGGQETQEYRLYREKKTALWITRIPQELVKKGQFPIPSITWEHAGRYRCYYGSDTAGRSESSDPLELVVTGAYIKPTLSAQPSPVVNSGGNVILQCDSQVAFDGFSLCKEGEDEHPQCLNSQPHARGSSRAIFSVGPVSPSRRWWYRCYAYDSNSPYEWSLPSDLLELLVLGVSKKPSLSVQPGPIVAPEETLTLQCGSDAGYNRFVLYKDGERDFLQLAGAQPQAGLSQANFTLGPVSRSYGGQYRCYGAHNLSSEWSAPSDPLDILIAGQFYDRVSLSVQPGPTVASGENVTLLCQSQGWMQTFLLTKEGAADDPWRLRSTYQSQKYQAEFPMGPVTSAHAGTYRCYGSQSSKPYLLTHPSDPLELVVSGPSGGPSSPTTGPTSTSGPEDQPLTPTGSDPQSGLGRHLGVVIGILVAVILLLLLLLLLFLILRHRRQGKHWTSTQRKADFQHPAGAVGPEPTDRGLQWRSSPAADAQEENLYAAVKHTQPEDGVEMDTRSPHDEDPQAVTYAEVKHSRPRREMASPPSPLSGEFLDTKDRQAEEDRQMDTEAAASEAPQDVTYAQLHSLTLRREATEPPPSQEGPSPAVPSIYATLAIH
Sequence of LILRB2 antigen of the ELISA of Table 5 (format not specified) (Q8N423 22-460 limits assumed): as the sequence (Q8N423 22-460 limits assumed) above
T5 sequence (Q8N423 22-460 limits assumed): as above

Kd [1]: 0.705 nM | binding result [2]: binds | binding result [3]: binds | Kd [4]: 0.317 nM | koff [4]: 0.000107 s⁻¹ | kon [4]: 338000 M⁻¹ s⁻¹
B1: Antibody 10D7 (antibody, V domains shown)
VH: EVKLVESGGGLVKPGGSLKLSCAASGFTFSSYGMSWVRQTPEKRLEWVATISGAFSYTYYPDSVKGRFTISRDNAKNNLYLQMSSLRSEDTAFYYCARHDNSLYYAMDYWGQGTSVTVSS
VL: NVQITQSPSYLAASPGETITINCRTSKSITKYLAWYQEQPGKTNKLLIYSGSTLQSGIPSRFSGSGSGTDFTLTISSLEPEDFAMYYCQQHNEYPWTFGGGTKLEIK
notes: Mouse hybridoma mAb purified from ascites

EC50 [5]: 0.163 nM | IC50 [6]: 0.787 nM | Bmax [7]: 647000 RFU | Kd [7]: 0.446 nM | IC50 [8]: 0.813 nM | Span [9]: 11900 RFU | Bmax [10]: 618000 RFU | Kd [10]: 0.377 nM | IC50 (read off the curve) [11]: ~1 nM | Bmax [12]: 556000 RFU | Kd [12]: 0.162 nM | Kd [13]: 0.364 nM | IC50 [14]: 0.361 nM | Span [14]: 8000 RFU
B2: Antibody h#2E1 (antibody, V domains shown)
VH: EVQLVESGGGLVQPGGSLRLSCAVSGYSITSGYYWNWIRQAPGKGLEWVAYISYDGNNNYNPSLKNRFTISRDTSKNTFYLQMNSLRAEDTAVYYCAREESTMITTAWFAYWGQGTLVTVSS
VL: DIQMTQSPSSLSASVGDRVTITCRASENIYSNLAWYQQKPGKAPKLLIYGATNLASGVPSRFSGSGSGTDYTLTISSLQPEDFATYYCQHFWDTPYTFGQGTKVEIK
notes: Humanized variant of 11B12; detected with anti-human IgG

IC50 [6]: 0.468 nM | Bmax [15]: 461000 | IC50 [8]: 0.472 nM | IC50 [9]: 0.442 nM | Span [9]: 8620 RFU | Bmax [16]: 1.37 | % no Ab [17]: 50.7% | IC50 [14]: 0.36 nM | Span [14]: 5700 RFU
B3: Antibody 2E1_FC11 (antibody, V domains shown)
VH: B2 VH with N58I
VL: B2 VL with T94Y
notes: also called A16
